Source: paper PMC5270673, “Altered stoichiometry and nuclear delocalization of NonO and PSF promote cellular senescence” (Aging (Albany NY), 2016)

Key:
[1] = biological target: T1, Splicing Factor Proline/Glutamine Rich, PSF/SFPQ (human (endogenous in BJ fibroblasts)), P23246; test: SEC; Superose 6 FPLC of nuclear and cytoplasmic extracts of BJ fibroblasts, untransfected or overexpressing NonO, day 8; 400 mM KCl, 20 mM HEPES pH 7.9, 1.0 mM MgCl2, 0.5 mM EGTA, 10% glycerol; fractions blotted with anti-NonO and anti-PSF; masses estimated from marker proteins; conditions: remark: other sources report otherwise
T1 chain: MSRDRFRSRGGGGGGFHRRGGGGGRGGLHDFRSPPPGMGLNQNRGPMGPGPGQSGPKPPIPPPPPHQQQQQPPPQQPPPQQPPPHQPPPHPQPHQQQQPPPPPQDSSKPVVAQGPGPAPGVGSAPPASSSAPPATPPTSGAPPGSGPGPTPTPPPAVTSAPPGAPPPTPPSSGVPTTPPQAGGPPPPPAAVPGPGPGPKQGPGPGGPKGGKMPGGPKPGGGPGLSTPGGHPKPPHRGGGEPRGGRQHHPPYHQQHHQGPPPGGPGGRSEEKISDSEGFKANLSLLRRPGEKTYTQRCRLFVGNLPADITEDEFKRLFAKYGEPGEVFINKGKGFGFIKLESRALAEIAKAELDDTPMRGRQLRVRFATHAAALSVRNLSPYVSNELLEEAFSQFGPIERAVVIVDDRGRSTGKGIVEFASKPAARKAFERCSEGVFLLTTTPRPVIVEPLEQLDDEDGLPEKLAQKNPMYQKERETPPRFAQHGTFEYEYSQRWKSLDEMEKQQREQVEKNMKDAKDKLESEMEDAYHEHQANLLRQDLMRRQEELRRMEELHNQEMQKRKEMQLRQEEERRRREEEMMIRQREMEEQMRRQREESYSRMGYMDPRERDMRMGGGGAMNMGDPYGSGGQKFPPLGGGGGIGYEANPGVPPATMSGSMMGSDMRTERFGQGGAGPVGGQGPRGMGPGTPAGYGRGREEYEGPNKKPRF

[2] = biological target: the molecule itself; test: as above

B1: Splicing Factor Proline/Glutamine Rich, PSF/SFPQ, P23246 1-707 (natural protein)
chain: T1 chain
[1]
  stoichiometry N: 2

B2: NonO overexpressed in BJ fibroblasts (natural protein, UniProt Q99K48 1-473, looked up)
chain: MQSNKAFNLEKQNHTPRKHHQHHHQQHHQQQQQQQQQQPPPPIPANGQQASSQNEGLTIDLKNFRKPGEKTFTQRSRLFVGNLPPDITEEEMRKLFEKYGKAGEVFIHKDKGFGFIRLETRTLAEIAKVELDNMPLRGKQLRVRFACHSASLTVRNLPQYVSNELLEEAFSVFGQVERAVVIVDDRGRPSGKGIVEFSGKPAARKALDRCSEGSFLLTTFPRPVTVEPMDQLDDEEGLPEKLVIKNQQFHKEREQPPRFAQPGSFEYEYAMRWKALIEMEKQQQDQVDRNIKEAREKLEMEMEAARHEHQVMLMRQDLMRRQEELRRMEELHNQEVQKRKQLELRQEEERRRREEEMRRQQEEMMRRQQEGFKGTFPDAREQEIRMGQMAMGGAMGINNRGAMPPAPVPPGTPAPPGPATMMPDGTLGLTPPTTERFGQAATMEGIGAIGGTPPAFNRPAPGAEFAPNKRRRY
notes: NonO cDNA expressed from a transfected plasmid; Its NonO fragments end at residue 473; The tag is therefore unknown; also called NonO OE; full-length NonO; source: BJ human diploid fibroblasts, stably transfected, nuclear or cytoplasmic extract
[2]
  stoichiometry N: 2
